Test results from patent publication US20260125454A1 (SHANGHAI JUNSHI BIOSCIENCES, published 2026).
Substitutions are numbered along the chain they refer to.

B1: hu109 (antibody, V domains shown)
VH: QVQLVQSGAEVKKPGASVKVSCKASGYTFTDYNMHWVRQAPGQGLEWMGNIYPYNGGTVYNQKFNNRVTLTVDTSSSTAYMELSRLRSDDTAVYYCAREGLGGYWGQGTLVTVSS
VL: EIVLTQSPATLSLSPGERATLSCKASQNIDFDGYAYMNWYQQKPGQAPRVLIYSVFNLESGIPARFSGSGSGTDFTLTISSLEPEDFAVYYCQQSHEVPYTFGQGTKLEIK
notes: 2B8 HC1-1/1F5 LC1-1
B2: hu110 (antibody, V domains shown)
VH: B1 VH
VL: B1 VL with Q42H
notes: 2B8 HC1-1/1F5 LC1-2
B3: hu120 (antibody, V domains shown)
VH: B1 VH with S84R, R85S
VL: B1 VL with F31Y, M37L, H96N, V98F
notes: 2B8 HC1-2/1A2 LC2-3
B4: hu122 (antibody, V domains shown)
VH: B1 VH with S84R, R85S
VL: B1 VL
notes: 2B8 HC1-2/1F5 LC1-1
B5: hu123 (antibody, V domains shown)
VH: B1 VH with S84R, R85S
VL: B1 VL with Q42H
notes: 2B8 HC1-2/1F5 LC1-2
B6: hu133 (antibody, V domains shown)
VH: B1 VH with G56A
VL: B1 VL with F31Y, M37L, H96N, V98F
notes: 2B8 HC1-3/1A2 LC2-3
B7: hu135 (antibody, V domains shown)
VH: B1 VH with G56A
VL: B1 VL
notes: 2B8 HC1-3/1F5 LC1-1
B8: hu148 (antibody, V domains shown)
VH: B1 VH with A24T, G44R, N50Y, Y52S, V59A, N65K, N66F, R85S, D89E
VL: B1 VL
notes: 3E5 HC-1/1F5 LC1-1
B9: hu149 (antibody, V domains shown)
VH: B1 VH with A24T, G44R, N50Y, Y52S, V59A, N65K, N66F, R85S, D89E
VL: B1 VL with Q42H
notes: 3E5 HC-1/1F5 LC1-2
B10: hu159 (antibody, V domains shown)
VH: B1 VH with G44R, N50Y, Y52S, V59A, N65K, N66F, R85S, D89E
VL: B1 VL with F31Y, M37L, H96N, V98F
notes: 3E5 HC-2/1A2 LC2-3
B11: hu161 (antibody, V domains shown)
VH: B1 VH with G44R, N50Y, Y52S, V59A, N65K, N66F, R85S, D89E
VL: B1 VL
notes: 3E5 HC-2/1F5 LC1-1
B12: hu162 (antibody, V domains shown)
VH: B1 VH with G44R, N50Y, Y52S, V59A, N65K, N66F, R85S, D89E
VL: B1 VL with Q42H
notes: 3E5 HC-2/1F5 LC1-2
B13: hu172 (antibody, V domains shown)
VH: B1 VH with N50Y, Y52S, V59A, N65K, N66F, A92V
VL: B1 VL with F31Y, M37L, H96N, V98F
notes: 3E5 HC-3/1A2 LC2-3
B14: hu174 (antibody, V domains shown)
VH: B1 VH with N50Y, Y52S, V59A, N65K, N66F, A92V
VL: B1 VL
notes: 3E5 HC-3/1F5 LC1-1
B15: hu175 (antibody, V domains shown)
VH: B1 VH with N50Y, Y52S, V59A, N65K, N66F, A92V
VL: B1 VL with Q42H
notes: 3E5 HC-3/1F5 LC1-2
B16: hu187 (antibody, V domains shown)
VH: B1 VH with A24T, G44R, N50Y, Y52S, G56A, V59A, N65K, N66F, R85S, D89E
VL: B1 VL
notes: 3E5 HC-4/1F5 LC1-1
B17: hu188 (antibody, V domains shown)
VH: B1 VH with A24T, G44R, N50Y, Y52S, G56A, V59A, N65K, N66F, R85S, D89E
VL: B1 VL with Q42H
notes: 3E5 HC-4/1F5 LC1-2
B18: hu198 (antibody, V domains shown)
VH: B1 VH with N50Y, G57H, N65R, L70M, S84R, R85S, R98K
VL: B1 VL with F31Y, M37L, H96N, V98F
notes: 3H10 HC-1/1A2 LC2-3
B19: hu200 (antibody, V domains shown)
VH: B1 VH with N50Y, G57H, N65R, L70M, S84R, R85S, R98K
VL: B1 VL
notes: 3H10 HC-1/1F5 LC1-1
B20: hu201 (antibody, V domains shown)
VH: B1 VH with N50Y, G57H, N65R, L70M, S84R, R85S, R98K
VL: B1 VL with Q42H
notes: 3H10 HC-1/1F5 LC1-2
B21: hu211 (antibody, V domains shown)
VH: B1 VH with N50Y, G57H, N65R, S84R, R85S
VL: B1 VL with F31Y, M37L, H96N, V98F
notes: 3H10 HC-2/1A2 LC2-3
B22: hu214 (antibody, V domains shown)
VH: B1 VH with N50Y, G57H, N65R, S84R, R85S
VL: B1 VL with Q42H
notes: 3H10 HC-2/1F5 LC1-2
B23: hu212 (antibody, V domains shown)
VH: B1 VH with N50Y, G57H, N65R, S84R, R85S
VL: DIQLTQSPSFLSASVGDRVTITCKASQNIDYDGYAYLNWYQQKPGKAPKVLIYSVFNLESGVPSRFSGSGSGTEFTLTISSLQPEDFATYYCQQSNEFPYTFGQGTKLEIK
notes: 3H10 HC-2/1A2 LC2-4
B24: hu4 (antibody, V domains shown)
VH: B1 VH with N50Y, Y52F, G57V, T58A, Q62R, N65R, N66S, V72I, S84R, R85S
VL: B23 VL
notes: 1B2 HC-1/1A2 LC2-4
B25: hu13 (antibody, V domains shown)
VH: B1 VH with N50Y, Y52F, G57V, T58A, Q62R, N65R, N66S, V72I, S84R, R85S
VL: B23 VL with F10S, D32G, A35S, L37M, E74D, F98A
notes: 1B2 HC-1/3H10 LC2-2
B26: hu17 (antibody, V domains shown)
VH: B1 VH with G44R, N50Y, Y52F, G57V, T58A, Q62R, N65R, N66S, R85S, D89E
VL: B23 VL
notes: 1B2 HC-2/1A2 LC2-4
B27: hu30 (antibody, V domains shown)
VH: B1 VH with T30I, Y32F, G44R, N50Y, G57D, T58V, K63N, N65T, R85S, D89E
VL: B23 VL
notes: 1F5 HC-1/1A2 LC2-4
B28: hu43 (antibody, V domains shown)
VH: B1 VH with Y32F, G44R, N50Y, G57D, T58V, K63N, N65T, R85S, D89E
VL: B23 VL
notes: 1F5 HC-2/1A2 LC2-4
B29: hu56 (antibody, V domains shown)
VH: B1 VH with Y32F, N50Y, G57D, T58V, K63N, N65T, S84R, R85S
VL: B23 VL
notes: 1F5 HC-3/1A2 LC2-4
B30: hu65 (antibody, V domains shown)
VH: B1 VH with Y32F, N50Y, G57D, T58V, K63N, N65T, S84R, R85S
VL: B23 VL with F10S, D32G, A35S, L37M, E74D, F98A
notes: 1F5 HC-3/3H10 LC2-2
B31: hu82 (antibody, V domains shown)
VH: QVQLVQSGAEVKKPGASVKVSCKASGYTFIDFNMHWVRQAPGQRLEWMGYIYPYNADVVYNQDFTNRVTLTVDTSSSTAYMELSSLRSEDTAVYYCAREGLGGYWGQGTLVTVSS
VL: B23 VL
notes: 1F5 HC-5/1A2 LC2-4
B32: hu95 (antibody, V domains shown)
VH: B1 VH with G44R, N50Y, I51V, T58S, V59A, N65K, N66S, R85S, D89E
VL: B23 VL
notes: 2A2 HC-1/1A2 LC2-4
B33: hu108 (antibody, V domains shown)
VH: B1 VH
VL: B23 VL
notes: 2B8 HC1-1/1A2 LC2-4
B34: hu117 (antibody, V domains shown)
VH: B1 VH
VL: B23 VL with F10S, D32G, A35S, L37M, E74D, F98A
notes: 2B8 HC1-1/3H10 LC2-2
B35: hu121 (antibody, V domains shown)
VH: B1 VH with S84R, R85S
VL: B23 VL
notes: 2B8 HC1-2/1A2 LC2-4
B36: hu130 (antibody, V domains shown)
VH: B1 VH with S84R, R85S
VL: B23 VL with F10S, D32G, A35S, L37M, E74D, F98A
notes: 2B8 HC1-2/3H10 LC2-2
B37: hu134 (antibody, V domains shown)
VH: B1 VH with G56A
VL: B23 VL
notes: 2B8 HC1-3/1A2 LC2-4
B38: hu143 (antibody, V domains shown)
VH: B1 VH with G56A
VL: B23 VL with F10S, D32G, A35S, L37M, E74D, F98A
notes: 2B8 HC1-3/3H10 LC2-2
B39: hu147 (antibody, V domains shown)
VH: B1 VH with A24T, G44R, N50Y, Y52S, V59A, N65K, N66F, R85S, D89E
VL: B23 VL
notes: 3E5 HC-1/1A2 LC2-4
B40: hu160 (antibody, V domains shown)
VH: B1 VH with G44R, N50Y, Y52S, V59A, N65K, N66F, R85S, D89E
VL: B23 VL
notes: 3E5 HC-2/1A2 LC2-4
B41: hu173 (antibody, V domains shown)
VH: B1 VH with N50Y, Y52S, V59A, N65K, N66F, A92V
VL: B23 VL
notes: 3E5 HC-3/1A2 LC2-4
B42: hu186 (antibody, V domains shown)
VH: B31 VH with A24T, I30T, F32Y, Y52S, D57G, V58T, V59A, D63K, T65K, N66F
VL: B23 VL
notes: 3E5 HC-4/1A2 LC2-4
B43: hu199 (antibody, V domains shown)
VH: B1 VH with N50Y, G57H, N65R, L70M, S84R, R85S, R98K
VL: B23 VL
notes: 3H10 HC-1/1A2 LC2-4

Target: T1, Biotin-huCGRPaSA (human, not fully specified; biotin (position not given))
T1 construct: exact construct ('aSA') not explained; also called Biotin CGRPaSA; full-length (1-37) CGRP
T1 peptide: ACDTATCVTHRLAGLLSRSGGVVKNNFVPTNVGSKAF
Test: ELISA, supernatant; relative to chimeric C245
Method in brief: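 Plates coated with biotin-CGRPaSA at 1.0 μg/mL (90 min, 37°C) and blocked with 2% BSA. Humanized antibodies and chimeric C245 reference, 2.5-fold serial dilutions from 1000 ng/mL, bound 60 min at 37°C. Detection by HRP anti-human IgG (Fc), TMB 15 min, read at 450/620 nm.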

Row | Binder | Relative binding activity, %
1 | B1 | 78%
2 | B2 | 85%
3 | B3 | 28%
4 | B4 | 97%
5 | B5 | 96%
6 | B6 | 81%
7 | B7 | 98%
8 | B8 | 100%
9 | B9 | 91%
10 | B10 | 26%
11 | B11 | 88%
12 | B12 | 81%
13 | B13 | 94%
14 | B14 | 84%
15 | B15 | 82%
16 | B16 | 67%
17 | B17 | 46%
18 | B18 | 39%
19 | B19 | 43%
20 | B20 | 67%
21 | B21 | 54%
22 | B22 | 57%

Row | Binder | Relative binding activity, %
23 | B23 | 38%
24 | B24 | 58%
25 | B25 | 27%
26 | B26 | 35%
27 | B27 | 47%
28 | B28 | 44%
29 | B29 | 53%
30 | B30 | 20%
31 | B31 | 97%
32 | B32 | 43%
33 | B33 | 70%
34 | B34 | 36%
35 | B35 | 49%
36 | B36 | 53%
37 | B37 | 86%
38 | B38 | 41%
39 | B39 | 111%
40 | B40 | 50%
41 | B41 | 92%
42 | B42 | 53%
43 | B43 | 41%
